Measurements reported in US20250296995A1.
pKd: −log10 of the molar value.

The substances below were run against recombinant Plasmodium falciparum circumsporozoite protein (CSP) (Plasmodium falciparum) (UniProt P19597) (assay: cell-based or functional assay).
Chain of recombinant Plasmodium falciparum circumsporozoite protein (CSP) (Plasmodium falciparum) (P19597 21-375 limits assumed): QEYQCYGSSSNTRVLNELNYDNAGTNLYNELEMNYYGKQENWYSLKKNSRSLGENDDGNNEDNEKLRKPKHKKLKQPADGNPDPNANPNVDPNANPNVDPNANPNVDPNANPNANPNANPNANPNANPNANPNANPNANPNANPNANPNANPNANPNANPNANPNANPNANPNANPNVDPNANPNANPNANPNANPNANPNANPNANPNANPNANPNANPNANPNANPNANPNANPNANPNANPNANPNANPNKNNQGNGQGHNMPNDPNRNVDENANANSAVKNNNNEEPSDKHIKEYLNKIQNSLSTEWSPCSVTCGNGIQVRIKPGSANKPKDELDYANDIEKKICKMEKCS

Row | Geo Mean EC50 (ug/ml), ADNKA, Donor 1 [µg/mL] | Geo Mean EC50 (ug/ml), ADNKA, Donor 2 [µg/mL] | Geo Mean EC50 (ug/ml), ADNKA, Donor 3 [µg/mL] | Geo Mean EC50 (ug/ml), ADNKA, Donor 4 [µg/mL] | Substance
1 | 0.0027 | 0.0022 | 0.0276 | 0.0111 | 317 DE-LS (antibody)
2 | 0.0567 | 0.231 | 0.151 | 0.0709 | 317 LS (antibody)
3 | 0.0277 | 0.143 | 0.104 | 0.0643 | CIS43 LS (antibody)
4 | 0.038 | 0.514 | 0.0887 | 0.0286 | L9 LS (antibody)

The substances below were run against human FcRn (human) (UniProt P55899) (assay: SPR, human FcRn, pH 6.0).

Row | pKd | Substance
5 | 6.76 | L9 (antibody)
6 | 6.99 | hIgG1 WT control (antibody)

Each substance was assayed against recombinant Plasmodium falciparum circumsporozoite protein (CSP) (Plasmodium falciparum) (UniProt P19597) (assay: SPR, recombinant CSP; geometric mean, n=2).

Row | pKd | Substance
7 | 10.40 | L9 (antibody)
